Data on 18 sequences can be found in the supplement of paper PMC12764529.

± gives the half width of the 95% confidence interval.

Series [1] can be described thus: folding stability dG unfold from trypsin proteolysis; higher = more stable. Put shortly: (§1)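 Unfolding free energy was derived, per protease or combined, by relating Bayesian-fitted K50 values from sequencing counts to a sequence-predicted unfolded-state K50 and a shared folded-state K50. The underlying digests exposed cysteine-free mini-proteins under 80 residues, in a PA-tagged cDNA display construct, to trypsin and chymotrypsin at 11 threefold-diluted concentrations and to a no-protease condition. A filter kept only designs with AlphaFold2 dimer inter-PAE above 15.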

The nature of series [2]: folding stability dG unfold from chymotrypsin proteolysis; higher = more stable. Put shortly: as §1
A short description of series [3]: folding stability dG unfold (combined trypsin and chymotrypsin); higher = more stable. Put shortly:
as §1

On to “SAGMYLVKITVTNEDGEKKEITVLVEAETEEEAREAAEELARELAEKYPEKIVEVKVEVVKLPPEVEPSAGG [r19_335_TrROS_Hall]”, for which the “folding stability dG unfold” value in series [1] came to 4.12 ± 0.19 kcal/mol; in series [2], 4.77 ± 0.16 kcal/mol; in series [3], 4.98 ± 0.66 kcal/mol.
Consider “SAGMYTITISRLPGGEYEVRVTDAANGEEVARRPVASEEEARAEAERIAAEIAEADPDVEVRVSESDAESAG [r5_383_JUSTAS]”, for which the “folding stability dG unfold” value in series [1] worked out at 2.51 ± 0.066 kcal/mol; in series [2], 2.959 ± 0.023 kcal/mol; in series [3], 2.83 ± 0.04 kcal/mol.
Taken in the same sequence, the figures for “SAGNIKIKEVEINDNTLTISYRMPGSGMWVKASIQADKGAIKIKSEYYPPKGKPIGEEEFTVPLDELKLSAG [r5_308_TrROS]” were 0.979 ± 0.042 kcal/mol, 1.74 ± 0.31 kcal/mol and 1.45 ± 0.28 kcal/mol.
Taken in the same sequence, the figures for “SAGNIKISYDPDDGWLTITFPVAPGQEFSFKLNIMLPENGAKIKNVEVTGPLKDGQPVTITMKVTGIKPSAG [r5_737_TrROS]” were 2.2 ± 0.13 kcal/mol, 3.77 ± 0.064 kcal/mol and 3.27 ± 0.11 kcal/mol.
Taken in the same sequence, the figures for “SAGNIMVQVEPDPGGTVKVEIMFMIPLPNGWPIMIQIEWEVRVDEDGEPELKMPIEIFFSEEALDKGFSAGG [r19_63_TrROS]” were 2.06 ± 0.11 kcal/mol, 1.99 ± 0.029 kcal/mol and 2.09 ± 0.13 kcal/mol.
As for “SAGNSNTRYIVRIKIKKYNPETGKIEEIEIDVPISDDDLNIPVEKIIEALKKAFPNTEIEAEITKVPASAGG [r19_189_TrMRF]”, the figures for the “folding stability dG unfold” value in series [1], in series [2] and in series [3] were 3.77 ± 0.29 kcal/mol, 3.88 ± 0.13 kcal/mol and 3.74 ± 0.17 kcal/mol, respectively.
For “SAGNVTIRISFYPRKDGWFFRIKVHFDGKPRELMIPPDDSAEDLADELEKKLGADVTDIEVEWMPLEDGSAG [r5_181_TrROS]” the same measures were 3.27 ± 0.1 kcal/mol, 4.25 ± 0.083 kcal/mol and 3.88 ± 0.12 kcal/mol.
Taken in the same sequence, the figures for “SAGPAPGAPWEKVEIVAEAWVPTAGGKAVPVVLARAPDGSLLATFPDGTVRVVVPGAGPEVTVELPLASAGG [r19_199_TrMRF]” were 0.115 ± 0.046 kcal/mol, 2.032 ± 0.016 kcal/mol and 1.62 ± 0.065 kcal/mol.
As for “SAGPEKPFDIVIVEVKSMEVHEDPNGRRSVRIPVVARIPGGYYIRFEIWINPPTGNVSIDWEIVPLDDSAGG [r19_320_TrROS]”, the “folding stability dG unfold” value in series [1] was found to be 2.73 ± 0.047 kcal/mol; in series [2] it was 4.21 ± 0.12 kcal/mol; in series [3], 3.82 ± 0.14 kcal/mol.
As to “SAGPEREVEVETLVIEAEDGKERLVLRLVRVDGRLYLEVRRYRDGKWEEVARFEAPEEITLSPELLKALSAG [r5_490_TrROS_Hall]”, the “folding stability dG unfold” value in series [1] stood at 4.09 ± 0.091 kcal/mol; in series [2], 4.219 ± 0.039 kcal/mol; in series [3], 4.16 ± 0.078 kcal/mol.
“SAGPFILVKFVTPDGRPLYYVIEIPESEEPEKLTLEQALEVAEAIAKALASKGGFEVKEVKIVSPEEFSAGG [r19_27_TrMRF]”: the “folding stability dG unfold” value was 3.43 ± 0.083 kcal/mol in series [1], 3.802 ± 0.023 kcal/mol in series [2] and 3.66 ± 0.057 kcal/mol in series [3].
For the sequence “SAGPGAELVAEFEVELGDRGARIRIYRAPDFLIIRVDYPDGTVPVFRIDPRTGRIVEVRTFRVRPDLPLSAG [r14_676_TrMRF]”, the “folding stability dG unfold” value in series [1] came to 2.56 ± 0.045 kcal/mol; in series [2], 1.91 ± 0.098 kcal/mol; in series [3] it was 2.28 ± 0.11 kcal/mol.
For “SAGPIKELLEFLKANPDAVVEFEFTLPNGAKVKIKAKKFPDAVVLEVTTIDPNNKKPITGTITIPLPESAGG [r19_143_TrMRF]” the same measures were 4.15 ± 0.13 kcal/mol, 3.49 ± 0.072 kcal/mol and 3.81 ± 0.13 kcal/mol.
With “SAGPKMKPIPFEFRNPDNGHKVKISVYYNPNGKRKIMITNPGDGRIYTFKINPGGIEIEKEIPLDDIKFSAG [r5_619_TrROS]”, the “folding stability dG unfold” value was found to be 1.13 ± 0.13 kcal/mol in series [1], 0.857 ± 0.67 kcal/mol in series [2] and 0.83 ± 0.36 kcal/mol in series [3].
As to “SAGPKNREIKVRIQFNGNWVEYKMPDNDLKELVKNGGLQIAGVDPEKDEIMIQIPVPPPKPDPEDGKPKSAG [r5_868_TrROS]”, the “folding stability dG unfold” value in series [1] is -0.0867 ± 0.19 kcal/mol; in series [2], 1.23 ± 0.083 kcal/mol; in series [3], 0.773 ± 0.15 kcal/mol.
Taken in the same sequence, the figures for “SAGPKVKLIKAEFFPDGRLVVYAEVESSNGEPAFAVGVFDPRNPNKAHVKVYNPSTGKVSEFEVTVTPGSAG [r5_345_TrMRF]” were 2.57 ± 0.054 kcal/mol, 3.24 ± 0.042 kcal/mol and 3 ± 0.035 kcal/mol.
With “SAGPLPEDVAAGKPVDVEAPIPLRRKDGDLLAVFPITGPMTVKELLEVLEAIRERARELDLPPVEDLDRSAG [r5_606_TrMRF]”, the “folding stability dG unfold” value in series [1] was 0.36 ± 0.047 kcal/mol; in series [2], -0.268 ± 0.21 kcal/mol; in series [3], 0.181 ± 0.065 kcal/mol.
As to “SAGPLTVTVEGDTLTVTVPLTDVPADATVRVTVTVGDKTEEYTVPPSESITVTVPSSAVEVTVERLPPASAG [r5_867_JUSTAS]”, the “folding stability dG unfold” value in series [1] stood at 2.09 ± 0.085 kcal/mol; in series [2] it was 2.44 ± 0.082 kcal/mol; in series [3] it was 2.36 ± 0.12 kcal/mol.
